Experimental data as given in publication PMC4945140 (Molecular Biology of the Cell, 2016).

B1: Cdc11-capped septin hetero-octamers (Cdc11-Cdc12-Cdc3-Cdc10-Cdc10-Cdc3-Cdc12-Cdc11) (complex)
chain 1: MSGIIDASSALRKRKHLKRGITFTVMIVGQSGSGRSTFINTLCGQQVVDTSTTILLPTDTSTEIDLQLREETVELEDDEGVKIQLNIIDTPGFGDSLDNSPSFEIISDYIRHQYDEILLEESRVRRNPRFKDGRVHCCLYLINPTGHGLKEIDVEFIRQLGSLVNIIPVISKSDSLTRDELKLNKKLIMEDIDRWNLPIYNFPFDEDEISDEDYETNMYLRTLLPFAIIGSNEVYEMGGDVGTIRGRKYPWGILDVEDSSISDFVILRNALLISHLHDLKNYTHEILYERYRTEALSGESVAAESIRPNLTKLNGSSSSSTTTRRNTNPFKQSNNINNDVLNPASDMHGQSTGENNETYMTREEQIRLEEERLKAFEERVQQELLLKRQELLQREKELREIEARLEKEAKIKQEE
chain 2: MSAATATAAPVPPPVGISNLPNQRYKIVNEEGGTFTVMLCGESGLGKTTFINTLFQTVLKRADGQQHRQEPIRKTVEIDITRALLEEKHFELRVNVIDTPGFGDNVNNNKAWQPLVDFIDDQHDSYMRQEQQPYRTKKFDLRVHAVLYFIRPTGHGLKPIDIETMKRLSTRANLIPVIAKADTLTAQELQQFKSRIRQVIEAQEIRIFTPPLDADSKEDAKSGSNPDSAAVEHARQLIEAMPFAIVGSEKKFDNGQGTQVVARKYPWGLVEIENDSHCDFRKLRALLLRTYLLDLISTTQEMHYETYRRLRLEGHENTGEGNEDFTLPAIAPARKLSHNPRYKEEENALKKYFTDQVKAEEQRFRQWEQNIVNERIRLNGDLEEIQGKVKKLEEQVKSLQVKKSHLK
chain 3: MSLKEEQVSIKQDPEQEERQHDQFNDVQIKQESQDHDGVDSQYTNGTQNDDSERFEAAESDVKVEPGLGMGITSSQSEKGQVLPDQPEIKFIRRQINGYVGFANLPKQWHRRSIKNGFSFNLLCVGPDGIGKTTLMKTLFNNDDIEANLVKDYEEELANDQEEEEGQGEGHENQSQEQRHKVKIKSYESVIEENGVKLNLNVIDTEGFGDFLNNDQKSWDPIIKEIDSRFDQYLDAENKINRHSINDKRIHACLYFIEPTGHYLKPLDLKFMQSVYEKCNLIPVIAKSDILTDEEILSFKKTIMNQLIQSNIELFKPPIYSNDDAENSHLSERLFSSLPYAVIGSNDIVENYSGNQVRGRSYPWGVIEVDNDNHSDFNLLKNLLIKQFMEELKERTSKILYENYRSSKLAKLGIKQDNSVFKEFDPISKQQEEKTLHEAKLAKLEIEMKTVFQQKVSEKEKKLQKSETELFARHKEMKEKLTKQLKALEDKKKQLELSINSASPNVNHSPVPTKKKGFLR
chain 4: MDPLSSVQPASYVGFDTITNQIEHRLLKKGFQFNIMVVGQSGLGKSTLINTLFASHLIDSATGDDISALPVTKTTEMKISTHTLVEDRVRLNINVIDTPGFGDFIDNSKAWEPIVKYIKEQHSQYLRKELTAQRERFITDTRVHAILYFLQPNGKELSRLDVEALKRLTEIANVIPVIGKSDTLTLDERTEFRELIQNEFEKYNFKIYPYDSEELTDEELELNRSVRSIIPFAVVGSENEIEINGETFRGRKTRWSAINVEDINQCDFVYLREFLIRTHLQDLIETTSYIHYEGFRARQLIALKENANSRSSAHMSSNAIQR

Experiments:
co-sedimentation = target: the molecule itself; assay: co-sedimentation
[1] = target: B1; assay: co-sedimentation

| Binder | binding result (co-sedimentation) | binding result [1] |
| --- | --- | --- |
| B1 | binds |  |
| His6-MBP-Hsl1(611–950) fusion protein (domain or fragment) RETVHDNEMPLPQLPKSPSRYSLSRRAIHASPSTKSIHKSLSRKNIAATVAARRTLQNSASKRSLYSLQSISKRSLNLNDLLVFDDPLPSKKPASENVNKSEPHSLESDSDFEILCDQILFGNALDRILEEEEDNEKERDTQRQRQNDTKSSADTFTISGVSTNKENEGPEYPTKIEKNQFNMSYKPSENMSGLSSFPIFEKENTLSSSYLEEQKPKRAALSDITNSFNKMNKQEGMRIEKKIQREQLQKKNDRPSPLKPIQHQELRVNSLPNDQGKPSLSLDPRRNISQPVNSKVESLLQGLKFKKEPASHWTHERGSLFMSEHVEDEKPVKASDVSIE |  | binds |
